Source: paper PMC10480500, “Cryo-EM structure of a bacteriophage M13 mini variant” (Nature Communications, 2023)

B1: minor coat protein pVII (natural protein, bacteriophage M13, UniProt P69535 1-33, looked up)
chain: MEQVADFDTIYQAMIQISVVLCFALGIIAGGQR
notes: Minor coat protein pVII of bacteriophage M13 (encoded by helper phage M13KO7); 33 residues, no signal peptide; residues 1-4 not built in the model; 5 copies in the particle (layer 1); source: E. coli TG1 with pUC19-minigenome, infected with helper phage M13KO7; in the mini phage purified from the supernatant (cobalt resin, sucrose density gradient)

Experiments:
[1] = biological target: the molecule itself; assay: cryo-EM structure; purified M13 mini phage particle (assembled in E. coli TG1 with helper phage M13KO7), 0.6-0.8 mg/ml; whole particle 3.5 Å with 5-fold symmetry; top, middle and bottom segments refined separately at 3.5, 3.1 and 3.3 Å
minor coat protein pVII = biological target: B1; assay: as above; conditions: both partners purified

| Binder | stoichiometry N [1] | binding result (minor coat protein pVII) |
| --- | --- | --- |
| B1 | 5 |  |
| minor coat protein pVI (natural protein, bacteriophage M13, UniProt P69532 1-112, looked up, 112 amino acids, no post-translational processing reported; residues 1 and 111-112 not built in the model; 5 copies in the particle; source: E. coli TG1 with pUC19-minigenome, infected with helper phage M13KO7; in the mini phage purified from the supernatant (cobalt resin, sucrose density gradient)) MPVLLGIPLLLRFLGFLLVTLFGYLLTFLKKGFGKIAIAISLFLALIIGLNSILVGYLSDISAQLPSDFVQGVQLILPSNALPCFYVILSVKAAIFIFDVKQKIVSYLDWDK | 5 |  |
| MSVLVYSFASFVLGWCLRSGITYFTRLMETSS (natural protein, bacteriophage M13, UniProt P69538 1-32, looked up, Minor coat protein pIX of bacteriophage M13 (encoded by helper phage M13KO7); 32 residues, no signal peptide; 5 copies in the particle (layer 2); source: E. coli TG1 with pUC19-minigenome, infected with helper phage M13KO7; in the mini phage purified from the supernatant (cobalt resin, sucrose density gradient)) [minor coat protein pIX] |  | binds |
